Experimental data published in patent US20040127419A1 (Amgen, published 2004).

Biological target: T1, mature human glial cell line-derived neurotrophic factor (hGDNF), CHO cell-expressed (human, UniProt P39905 78-211, glycosylated (N-linked sugar, about 4.5 kDa))
T1 construct: The native protein is a disulfide-bonded homodimer (44 kDa on non-reducing gels); also called mature GDNF; 22 kDa band
T1 chain: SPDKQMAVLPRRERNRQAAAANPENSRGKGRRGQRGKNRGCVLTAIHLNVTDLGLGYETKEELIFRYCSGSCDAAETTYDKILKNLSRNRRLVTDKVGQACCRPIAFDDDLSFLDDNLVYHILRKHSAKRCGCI
Experiment: purification from CHO conditioned medium, Western blot and N-terminal sequencing; disulfide-bonded dimer
Protocol: The following process describes the purification of CHO-expressed GDNF and a CHO-derived clipped GDNF homodimer, from one liter of conditioned media. Because of significant protease action in the CHO medium, clipping the chain at residue 31, the procedure may include the use of a protease inhibitor during purification.
Serum free conditioned media was made 20 mM 2-[N-Morpholino] ethane sulfonate (MES), pH 6.0, by adding one fiftieth volume of 1 M MES, pH 6.0. Twenty five milliliters of SP Sepharose Big Bead resin (Pharmacia), equilibrated with 20 mM MES, pH 6.0, was added and stirred at 4° C. for one hour. The resin was collected by allowing it to settle and decanting off the conditioned media. The decanted media was filtered through a fritted disc filter to recover any unsettled resin. […] Protein was eluted with a 300 ml gradient from A buffer to 1.0 M NaCl, 20 mM MES, pH 6.0 (B buffer), at a flow rate of 0.2 column volumes/minute with absorbance monitored at 280 nm. […] The presence of GDNF in the fractions was detected by Western blotting analysis. […]
Fractions containing GDNF from Step 2 were resolublized in one milliliter of 0.15 M NaCl, 10 mM Tris, pH 8.0, and applied to a 0.75×7.5 cm TSK-Gel 5WP high performance S column (Toso Haas). […] One minute fractions were collected with absorbance measured at 280 nm. […]

B1: [Arg32-Ile134] truncated GDNF protein, CHO cell-derived (ligand)
chain: RGQRGKNRGCVLTAIHLNVTDLGLGYETKEELIFRYCSGSCDAAETTYDKILKNLSRNRRLVTDKVGQACCRPIAFDDDLSFLDDNLVYHILRKHSAKRCGCI
modifications: glycosylated (N-linked and O-linked sugars)
notes: It forms a disulfide-bonded homodimer (36 kDa) or a heterodimer with mature GDNF (40 kDa); A later purification also found a [Lys37-Ile134] form; also called clipped GDNF; 18 kDa band
- binding result: binds
